Results on one substance are retold here after PMC4512762.

The target in experiment [1] is Monoglycosylated IgG1-Fc (high mannose glycan at a single CH2 domain of the dimer) (human). Briefly: BLI. Background: In BLI a coated tip is dipped into the sample, and binding shifts an interference pattern.
In experiment [2] the target is Diglycosylated IgG1-Fc (high mannose glycans at both CH2 domains of the dimer) (human). Briefly: BLI.

“Fc γ receptor IIIA, soluble domain of the high affinity V158 polymorph”: the Kd in experiment [1] is 100 nM; in experiment [2], 32 nM.

As usually defined, the Kd is the concentration at which binding is half-saturated.
